Measured values as given in the nanobody polyreactivity screen of Harvey et al. (2022).

assay: yeast display, Sf9 membrane polyspecificity reagent, FACS + sequencing; frameworks hold sequencing errors
Outline: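 A nanobody's polyreactivity label depends on the gate it was sorted from. Yeast display cells were stained with 10% biotinylated, detergent-solubilized Sf9 membrane reagent for 1 hour at 4 °C, enriched on streptavidin microbeads and sorted by FACS. The low and high (top ~1%) gates were set on anti-HA fluorescence for expression and streptavidin fluorescence for reagent binding.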

Sequence | polyreactivity (PSR sort gate)
QVQLVESGGGLVQAGCSLRLSCAASGSTFYRYAMGWYRQAPGKERELVAAITSGTGTYYADSVKGRFTISRDNAKNTVYLQMNSLKPEDTAVYYCNARRYLRGYWGQGTQVTVSS | low polyreactivity
QVQLVESGGGLVQAGGSLRLSCAASGRIFLGNVMGWSRQAPGKERELVAAISSGGSTNYADSVKGRFTISRDNAKNTVYLQMNSLKPEDTAVYYCAAYFVRDWKLYYYWGQGTHVTVSS | low polyreactivity
QVQLVESGGGLVPAGGSLRLSCAASGFTFPAYTRGWYRPAPGKERELVAAITSSGGNTYYADSVKGRFTISRDNAKNTVYLQMNSLKPEDTAVYYCNADASSSPYTDRQYIGADDSWGQGTQVTVSS | low polyreactivity
QFQLVESGGGLVQAGGSLRLSCAASGGTFDPYAMGLYRQAPGKERELVAAINYGGGSTYYADSVKGRFTISRDNAKNTVYLQMNSLKPEDTAVYYCAADGGRLTTSQLAQWEYDYWGQGTQVTVSS | low polyreactivity
QVQLVESGGGLVQEGGSLRLSCAASGSTFEYNAMGWYRQAPGKERELVADISWRGGGTYYADSVKGRFTISRDNAKNTVYLQMNSLKPEDTAVYYCNTVSRNGFYRTRHDYWGQGTQVTVSS | low polyreactivity
QVQLVESGGGLVQAGGSLRLSGAATGSIIHPYAMGWYRQAPGKERELLAAISKSGGNTYYADSVKGRITISRDNAKNTVYLQMNSLKPEDTAVYYCAALDYWGQGTQVTVSS | low polyreactivity
QVQLQESGGGLVQAGGTITLGYEMGWYRQAPGKEREFVAGIDTGAITYYADSVKGRFTNSRDNAKNTVYLQMNSLKPEDTAVYYCAAIQTHTYAHSYWGQGTQVTVSS | high polyreactivity
QVQLVESGGGLVQAGGSLRLSCAASGIIFEGYAMGWYRQAPGKERELVAAISQSGGSTRYADSVKGRFTISRDNAKNTVYLQMNSLKPEDTAVYYCAARYILWDGDSWTEFDYWGQGTQVTVSS | low polyreactivity
QVQLVESGGGLVQAGGSLRLSCAASGSTLQSYAMGWYRQAPGKERELVAGIRISGGNTRYADSVKGRFTISRDNAKNTVYLQMNSLKPEDTAVYYCAALTGFYNLRPYGYWGQGTQVTVSS | high polyreactivity
QVQLVESGGGLVQAGGSLRLTCAASGYIFSTYAMGSYRQAPGKERELVASISENGGSTYYADSVKGRFTISRDNAKNTVYLQMNSLKPEDTAVDYCNADAYVDVDDGDYWGEGTQVTVSS | low polyreactivity
QVQLVESGGGLVQAGGSLRLSCAASGSTLRYYAMGWYRQAPGKEREMVADITSSGNTNYADSVKGRFTISRDNAKNTVYLQMNSLKPEDTAVYYCAGDSANYQWYLSWQKDDYWGQGTQVTVSS | low polyreactivity
QVQLVESGGGLVQAGGSLRLSCAASGRTSVVNAMGWYRQAPGKERELVAAITSGGSTHYADSVKGRFTISRDNAKNTVYLQMNSLKPEDTAVYYCNARDRRRTNLLDYWGQGTQVTVSS | low polyreactivity
QVQLVESGGGLDQAGVSLRLSSAASGSTFVRNAMGCYRQAPGKEREWVAAINIGGSTYYADSVKGRFTISRDNAKNTVYLQMNSLKPEDTAVYYFAARIKYRYDWGQGTQVTVSS | low polyreactivity
QVQLVDSGGGLVQAGGSLRLSCAASGRTIATYTQGWYRHAPGKERELVAAISKSGGSTYYADSVKGRFTISRDNAKNTVYLQMNSLKTEDTAVYYCAKRRSGNVRKYDYWGQGTQVTVSS | high polyreactivity
QVQLVESGGGLVQAGGSLRLTCAASGRISGYNMGWYRQAPGKERELVAGIDYSGGSTYYADSVKGRFTISRDNAKYNVSLQMTSLKPEDTAVYDCNAVYARKYYYSHGYDYWGQGTQVTVSS | high polyreactivity
QVQLVESGGGLVKAGGSLRLSCAASGRIFRYYVMGWYRQAPGKERELVASISWRGTSTYYADSVKGRFTISRDNAKNTVYLQMNSLKPEDTAVYYCNAARPGKNYDSWGQGTQVTVSS | high polyreactivity
QVQLVESGGGLVQAGGSLRLSCADSGRLFYPYAMGWYTQAPGTERELVAAIRRSGVDTYYADSVKGRFTISRDNAKNTVYLQMNSLKPEDTAVYYCAADPYSFFPHYDSWGQGTQVTVSS | low polyreactivity
QVQLVESGGCLVQAGGSLRLSCSASGSIFNYNDMGWYRQAPGKERELVAAIDSSGTSTYYADSVKGRYTISRDNSKNNVYLQMTSLKPEDTAVYYCNADSSLGFGYWGQGTQVTVSS | low polyreactivity
QVQLVESGGGLVQAGGSLRLSCAASGSIFGRYAMGWYRQAPGKERELVAAISWRGGSTYYADSVKGRFTISRDNAKNTVYLQMNSLKPEDTAVYYCNVPYRSGYSHRYDYWGQGTQVTVSS | high polyreactivity
QVQLVESGGGLVQAGGSLRLSCAASGRIFHYYAMGWYRQAPGIERELVAAIRYSGGRTYYADSVKGRFTISRDNAKNTVYLQMNSLKPEDTAFYYCNAVPYVYKTITGDDYWGQGTQVTVSS | high polyreactivity
QVQLVESGGGLVQAGGSLRLSCAASGSIFRKNAMGWYRQAPGKERELVAAITGTGRTTYADSVKGRFTISRDNAKNTVYLQMNSLKPEDTAVYYCATSYHRRYDYWGQGTQVTVSS | low polyreactivity
QVQLVESGGGLVQAGGSLRLSCAASGSTFPPNAMGWYRQAPGKERELVAAISERGGSTYYADSVKGRFTISRDNAKNTVYLLMNSLKPEDTAVYYCAVDYYYLMYWGQGTQVTVSS | low polyreactivity

Sequence | polyreactivity (PSR sort gate)
QVQLVESGGGLVQAGGSLRLSCAASGRTFGTNAMGWYRQAPGKERELVAAISWRGTSTYYADSVKGRFTISRDNAKNTVYLQMNSLKPEDTAVYYCAADFSYTSYATRYQGDYWGQGTQVTVSS | low polyreactivity
QVQLVESGGGLVQAGGSLRLSCAASGSIFYPYAMGWYRQAPGKERELVAAINWGGTITYYADSVKGRFTISRDNAKNTVYLQMNSLKPEDTAVYYCAAKYKGYRYYYWGQGTQVTVSS | high polyreactivity
QVQLVESGGGLVQAGGSLRLSCAASGYTYSDNAMGWYRPAPGKERELVAAITSGVSTYYADSVKGRFTISRDNAKNTVYLQMNSPKPEDTAVYYCAKDVAVYADLYQGAPYGYWGQGTQVTVST | low polyreactivity
QVQLVESGGGLVQAGGSLRLSCAASGFIFVLNAMGWYRQAPGKERELVAAIRWSGGSTYYADSVKGRFTISRDNAKNTVYLQMNSLKPEDTAVYYCAARLWLKVQYLRFFGYDYWGQGTQVTVSS | low polyreactivity
QVHLVESGGGLVQAGVSLRLSCAASGLTFGPYAMGWYRQAPGKERELVAAITSGGNTNYADSVKGRFTISRDNAKNTVYLQMNSLKPEDTAVYYCATSYYLAYRSITPYDYWGQGTQVTVSS | low polyreactivity
QVQLVESAGGLVQAGGSLRLSCAASGNFGYNAIAWNRQAPGKETELVAAITSSGTSTYYADSVKGRLTISRDNAKNTVYLQMNSLKPEDTAVYYCAALPSGTWTGFGYWGQGTQVTVSS | low polyreactivity
QVQLVESGGGLVQAGGSLRLSCAASGRNFKYYTMGWYRQAPGKETELVAAISSGGRTKYADSVKGRFTISRDNAKNTVYLQMNSLKPEDTAVYYCNAGYPYPFYRSSQTGGYDYWGQGTQVTVSS | high polyreactivity
QVQHVESGGGLVQAGGSLRLSCAAYGSIFVYYAMGWYRKAPGKERDLFAAISSSGDTTYYADSVKGRYTISRDNAKNTVYLQMNSLKPEDTAVYYCAARVRVYRHASNYYWGQCTQVTVSS | high polyreactivity
QVQLVESGGGLVQAGGSLRLSFAASGIILGSYAMGWYRQAPGKERELVAGITSGGGTYYADSVKGRFTISRDNAKNTVYLQMNSLKPEDTAVYYCAKLYLHYYRYGYWGQGTQVTVSS | low polyreactivity
QVQLVESGGGLVQAGGSLRLSSAASGITFYVYAKGRYRQAPGKERELVAAISGSGGNTYYADSVKGRFTISRDNAKNTVYLQMNSLKPEDTPVYYFNADDHSPYYGDLDYWGQGTQVSVSS | low polyreactivity
QVQLVESGGGLVQAGGSLRLSCAASGSIFDTYTMGWYRQAPGKERELVAAITSGTTTTYADSVKGRFTISRDNAKNTVYLQMNSLKPEDTAVYYCAARTSGSFDYCGQGTQVTVSS | low polyreactivity
QVQLVESGGGLVQAGGSLRLRCAASGFIFSAYAMGWYSQAPGKERELVAGITKSVGRTTYADSVKGRFTIARDNAKNTVYLQMNSLKPEDTAVYYCNARRSYTYRIFGMDYWGQGTQVTVSS | high polyreactivity
QVQLQESGGGLVQAGGSLRLSCAASGTISDSGLKGWYRQAPGIERELVAGISSGGITNYADSVKGRFTISRDNAQNTVYLQMNSLKPVDTAVYWGQGTQLTVSS | low polyreactivity
QVQLVESGGGLVQAGGSLRLSCAASGRTFYWYALGWYRQAPGKERELVAAITKSGGSTYYADSVKGRFTISRDNAKNTVYLQMNSLKPEDTAVYYWAARYLYLLYYWGQGTQVTVSS | high polyreactivity
QVQLVESGGGLVQAGGSLRLICAASGSTFDVNAMGWYRQAPGKERELVAAISWNSGSTYYADSVKGRFTISRDNAKNTVYLQMNSLKPEDTAVYYCAATYGTGRRSKYGYWGQGTQVTVSS | high polyreactivity
QVQLVESGGGLVQAGGSLRLSSAPSGSTFTRYAMGWYRQAPGKERELVAAITSSGSRTYYADSVKGRFTISRDNAQNTVYLQKNSLKAEDTAVYYFAALGDTRYVGMDHWGQCTQVTVSS | high polyreactivity
QVQLVESGGGLVQAGGSLRLSCAASGRIFWWYAMGWYRQAPGKERELVAVIDDSGGITYYADSVKGRFTISRDNAKHTVYLQMNSLKPEDTAVYYCARNVNAQKVLGGFDSWGQGTQVTVSS | low polyreactivity
QVQLVESGGGLDQARGSLRLSCAASAPTFNSNAMGWYRQAPGKERDLVADINGGGSTYYADSVKGRFTISRDNAKNTVYLQMNSLKPEDTAVYYCAKCYTWYVWYPHGYWGQGTQVTVSS | low polyreactivity
QVQLVESGGGLVQAGGSLRLSCAASGRIFWGYAMGWYRQAPGKERELVAGITTGGSTKYADSVKGRFTISRDNAKNTVYLQMNSLKPVDTAVYYCAADDQYGYVYYAFWGYDYWGQGTQVTVSS | low polyreactivity
QVQLVESGGGLVQAGGTLRLSCAASGLTFARYAMGWYRQAPGKERELVAGIDSTGGTTYYADSVKGRFTISRDNAKNTFYLQMISLIPEDTAVYYCNTGGTFLDWVRSPFGFGYWGQGTQVTVSS | low polyreactivity
QVQLVESGGGLVQAGGSLRLSCAASGITFSYYAMGWYRPAPGKERELVAAINSGGGSTYYADSVKGRFTISRDNAKNTVYLQMNSLKPEDTAVYYCAARYRSRYDYYYDRDYWGQGTQVTVSS | low polyreactivity
